Data: article PMC9408373, “CDC42-IQGAP Interactions Scrutinized: New Insights into the Binding Properties of the GAP-Related Domain” (International Journal of Molecular Sciences, 2022)

T1: human IQGAP2 GRD2 (aa 875-1246) (human, UniProt Q13576 875-1246)
T1 construct: source: E. coli, purified (glutathione Sepharose), GST cleaved with thrombin; not shown: GST, N-terminal, cleaved
T1 sequence (looked up): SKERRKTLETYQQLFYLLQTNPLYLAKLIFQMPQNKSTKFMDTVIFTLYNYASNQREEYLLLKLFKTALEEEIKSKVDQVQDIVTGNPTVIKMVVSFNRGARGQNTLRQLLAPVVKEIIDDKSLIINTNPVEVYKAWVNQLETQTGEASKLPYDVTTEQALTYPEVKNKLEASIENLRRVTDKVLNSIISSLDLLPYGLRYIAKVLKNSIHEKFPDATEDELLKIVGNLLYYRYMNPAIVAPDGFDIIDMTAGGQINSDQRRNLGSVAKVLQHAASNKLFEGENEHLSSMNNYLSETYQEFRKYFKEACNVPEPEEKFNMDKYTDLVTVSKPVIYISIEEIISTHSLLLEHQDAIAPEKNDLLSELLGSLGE

B1: human CDC42 (aa 1-178) Q61L (natural protein)
chain: not shown
notes: also called CDC42^Q61L; CDC42(Q61L); source: E. coli, purified (glutathione Sepharose), GST cleaved with thrombin; not shown: GST, N-terminal, cleaved
B2: human CDC42 (aa 1-178), wild type (natural protein)
chain: not shown
notes: Loaded with mant-GppNHp or mant-GDP (fluorescence assays) or GppNHp (SEC); also called CDC42 WT; CDC42^wt; source: E. coli, purified (glutathione Sepharose), GST cleaved with thrombin; not shown: GST, N-terminal, cleaved
B3: human IQGAP1 GRD1 (aa 962-1345) (domain or fragment, UniProt P46940 962-1345, looked up)
chain: SKEKREKLEAYQHLFYLLQTNPTYLAKLIFQMPQNKSTKFMDSVIFTLYNYASNQREEYLLLRLFKTALQEEIKSKVDQIQEIVTGNPTVIKMVVSFNRGARGQNALRQILAPVVKEIMDDKSLNIKTDPVDIYKSWVNQMESQTGEASKLPYDVTPEQALAHEEVKTRLDSSIRNMRAVTDKFLSAIVSSVDKIPYGMRFIAKVLKDSLHEKFPDAGEDELLKIIGNLLYYRYMNPAIVAPDAFDIIDLSAGGQLTTDQRRNLGSIAKMLQHAASNKMFLGDNAHLSIINEYLSQSYQKFRRFFQTACDVPELQDKFNVDEYSDLVTLTKPVIYISIGEIINTHTLLLDHQDAIAPEHNDPIHELLDDLGEVPTIESLIGESS
notes: source: E. coli, purified (glutathione Sepharose), GST cleaved with thrombin; not shown: GST, N-terminal, cleaved
B4: human IQGAP1 C794 (aa 863-1657) (domain or fragment, UniProt P46940 863-1657, looked up)
chain: DPPMVVVRKFVHLLDQSDQDFQEELDLMKMREEVITLIRSNQQLENDLNLMDIKIGLLVKNKITLQDVVSHSKKLTKKNKEQLSDMMMINKQKGGLKALSKEKREKLEAYQHLFYLLQTNPTYLAKLIFQMPQNKSTKFMDSVIFTLYNYASNQREEYLLLRLFKTALQEEIKSKVDQIQEIVTGNPTVIKMVVSFNRGARGQNALRQILAPVVKEIMDDKSLNIKTDPVDIYKSWVNQMESQTGEASKLPYDVTPEQALAHEEVKTRLDSSIRNMRAVTDKFLSAIVSSVDKIPYGMRFIAKVLKDSLHEKFPDAGEDELLKIIGNLLYYRYMNPAIVAPDAFDIIDLSAGGQLTTDQRRNLGSIAKMLQHAASNKMFLGDNAHLSIINEYLSQSYQKFRRFFQTACDVPELQDKFNVDEYSDLVTLTKPVIYISIGEIINTHTLLLDHQDAIAPEHNDPIHELLDDLGEVPTIESLIGESSGNLNDPNKEALAKTEVSLTLTNKFDVPGDENAEMDARTILLNTKRLIVDVIRFQPGETLTEILETPATSEQEAEHQRAMQRRAIRDAKTPDKMKKSKSVKEDSNLTLQEKKEKIQTGLKKLTELGTVDPKNKYQELINDIARDIRNQRRYRQRRKAELVKLQQTYAALNSKATFYGEQVDYYKSYIKTCLDNLASKGKVSKKPREMKGKKSKKISLKYTAARLHEKGVLLEIEDLQVNQFKNVIFEISPTEEVGDFEVKAKFMGVQMETFMLHYQDLLQLQYEGVAVMKLFDRAKVNVNLLIFLLNKKFYGK
notes: as for B3
B5: human IQGAP2 C795 (aa 780-1575) (domain or fragment, UniProt Q13576 780-1575, looked up)
chain: PLTVIRKFVYLLDQSDLDFQEELEVARLREEVVTKIRANQQLEKDLNLMDIKIGLLVKNRITLEDVISHSKKLNKKKGGEMEILNNTDNQGIKSLSKERRKTLETYQQLFYLLQTNPLYLAKLIFQMPQNKSTKFMDTVIFTLYNYASNQREEYLLLKLFKTALEEEIKSKVDQVQDIVTGNPTVIKMVVSFNRGARGQNTLRQLLAPVVKEIIDDKSLIINTNPVEVYKAWVNQLETQTGEASKLPYDVTTEQALTYPEVKNKLEASIENLRRVTDKVLNSIISSLDLLPYGLRYIAKVLKNSIHEKFPDATEDELLKIVGNLLYYRYMNPAIVAPDGFDIIDMTAGGQINSDQRRNLGSVAKVLQHAASNKLFEGENEHLSSMNNYLSETYQEFRKYFKEACNVPEPEEKFNMDKYTDLVTVSKPVIYISIEEIISTHSLLLEHQDAIAPEKNDLLSELLGSLGEVPTVESFLGEGAVDPNDPNKANTLSQLSKTEISLVLTSKYDIEDGEAIDSRSLMIKTKKLIIDVIRNQPGNTLTEILETPATAQQEVDHATDMVSRAMIDSRTPEEMKHSQSMIEDAQLPLEQKKRKIQRNLRTLEQTGHVSSENKYQDILNEIAKDIRNQRIYRKLRKAELAKLQQTLNALNKKAAFYEEQINYYDTYIKTCLDNLKRKNTRRSIKLDGKGEPKGAKRAKPVKYTAAKLHEKGVLLDIDDLQTNQFKNVTFDIIATEDVGIFDVRSKFLGVEMEKVQLNIQDLLQMQYEGVAVMKMFDKVKVNVNLLIYLLNKKFYGK
notes: as for B3

Tests used:
Settings in all cases: both partners purified
[1] = target: B3; assay: fluorescence polarisation; 1 µM mant-GppNHp-bound CDC42 in the cuvette, IQGAP protein titrated; quadratic ligand binding equation
[2] = target: T1, human IQGAP2 GRD2 (aa 875-1246); assay: as above
[3] = target: B5; assay: as above
[4] = target: B4; assay: as above
[5] = target: B2; assay: SEC; GppNHp-bound CDC42 mixed with IQGAP1 GRD1; Superdex 200 10/300, 30 mM Tris/HCl pH 7.5, 150 mM NaCl, 5 mM MgCl2; stoichiometry from calibrated elution volumes
[6] = target: B1; assay: as above
[7] = target: B2; assay: fluorescence polarisation; 1 µM mant-GDP-bound CDC42 in the cuvette, IQGAP protein titrated; quadratic ligand binding equation

| Kd [1] [µM] | Kd [2] [µM] | fold higher affinity for mGppNHp-bound than for mGDP-bound CDC42 [7] [fold] | Binder | other results |
| --- | --- | --- | --- | --- |
| 2.7 | 2.5 |  | B1 |  |
| 186 | 69 |  | B2 | Kd [3]: 900 nM; Kd [4]: 600 nM |
|  |  |  | B3 | stoichiometry N [5]: 1 GRD1 per CDC42 (2:2); stoichiometry N [6]: 2 ratio 2:1 as printed (which partner is the 2 is not told) |
|  |  | ~100 | B4 |  |
|  |  | ~100 | B5 |  |
